Laboratory results published in patent US20180177842A1 (CANIMGUIDE THERAPEUTICS, published 2018).
Ends that are not written are not given here.

Target: T1, His-tagged P3028 (human, also: His tag, length and end not given here)
T1 construct: in solution at 0.5 ug/mL, detected with mouse anti-His antibody and rabbit anti-mouse peroxidase (rampo); also called PGE73; His-tag-P3028; not shown: His tag
T1 peptide: VFDEFKPLVEEPQNLIK
Experiment: PEPSCAN ELISA, peptide on chip;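 note: binding detected by peroxidase ELISA with ABTS, OD405 colour imaged by CCD camera before and after staining, raw OD405 reported as rampo units, air-bubble wells scored 0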

Binder | RAMPO Score [rampo units]
AKLDTFFVKLSLFTER [SEQ ID NO 268] | 466
DKLDTFFVKLSLFTER [SEQ ID NO 269] | 373
EKLDTFFVKLSLFTER [SEQ ID NO 270] | 396
GKLDTFFVKLSLFTER [SEQ ID NO 271] | 367
HKLDTFFVKLSLFTER [SEQ ID NO 272] | 428
IKLDTFFVKLSLFTER [SEQ ID NO 273] | 483
LKLDTFFVKLSLFTER [SEQ ID NO 274] | 449
MKLDTFFVKLSLFTER [SEQ ID NO 275] | 457
NKLDTFFVKLSLFTER [SEQ ID NO 276] | 445
PKLDTFFVKLSLFTER [SEQ ID NO 277] | 387
QKLDTFFVKLSLFTER [SEQ ID NO 278] | 455
RKLDTFFVKLSLFTER [SEQ ID NO 279] | 523
TKLDTFFVKLSLFTER [SEQ ID NO 280] | 493
VKLDTFFVKLSLFTER [SEQ ID NO 281] | 442
KKADTFFVKLSLFTER [SEQ ID NO 282] | 427
KKCDTFFVKLSLFTER [SEQ ID NO 283] | 432

Binder | RAMPO Score [rampo units]
KKDDTFFVKLSLFTER [SEQ ID NO 284] | 492
KKEDTFFVKLSLFTER [SEQ ID NO 285] | 528
KKFDTFFVKLSLFTER [SEQ ID NO 286] | 393
KKGDTFFVKLSLFTER [SEQ ID NO 287] | 563
KKHDTFFVKLSLFTER [SEQ ID NO 288] | 477
KKIDTFFVKLSLFTER [SEQ ID NO 289] | 454
KKKDTFFVKLSLFTER [SEQ ID NO 290] | 386
KKMDTFFVKLSLFTER [SEQ ID NO 291] | 460
KKNDTFFVKLSLFTER [SEQ ID NO 292] | 374
KKQDTFFVKLSLFTER [SEQ ID NO 293] | 473
KKRDTFFVKLSLFTER [SEQ ID NO 294] | 370
KKSDTFFVKLSLFTER [SEQ ID NO 295] | 393
KKTDTFFVKLSLFTER [SEQ ID NO 296] | 451
KKVDTFFVKLSLFTER [SEQ ID NO 297] | 377
KKLATFFVKLSLFTER [SEQ ID NO 298] | 494

Target: T2, P3028 (VFDEFKPLVEEPQNLIK, SEQ ID NO: 185), His-tagged (human)
T2 construct: Synthetic fragment of human serum albumin (positions 397-413); used in solution as His-tagged peptide PGE73; also called PGE73; not shown: His-tag
T2 peptide: VFDEFKPLVEEPQNLIK
Experiment: PEPSCAN ELISA; peptide on chip, His-P3028 added;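 note: peroxidase color development with ABTS and H2O2 substrate, OD405 imaged by CCD camera with image processing and taken as raw values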

Binder | RAMPO Score [rampo units]
KKLRTFFVKLSLFTER [KKLRTFFVKLSLFTER (SEQ ID NO: 480)] | 317
KKLSTFFVKLSLFTER [KKLSTFFVKLSLFTER (SEQ ID NO: 451)] | 344
KKLTTFFVKLSLFTER [KKLTTFFVKLSLFTER (SEQ ID NO: 413)] | 405
KKLWTFFVKLSLFTER [KKLWTFFVKLSLFTER (SEQ ID NO: 302)] | 443
KKLYTFFVKLSLFTER [KKLYTFFVKLSLFTER (SEQ ID NO: 303)] | 422
KKMDTFFVKLSLFTER [KKMDTFFVKLSLFTER (SEQ ID NO: 291)] | 460
KKNDTFFVKLSLFTER [KKNDTFFVKLSLFTER (SEQ ID NO: 292)] | 374
KKPDTFFVKLSLFTER [KKPDTFFVKLSLFTER (SEQ ID NO: 436)] | 361
KKQDTFFVKLSLFTER [KKQDTFFVKLSLFTER (SEQ ID NO: 293)] | 473
KKRDTFFVKLSLFTER [KKRDTFFVKLSLFTER (SEQ ID NO: 294)] | 370
KKSDTFFVKLSLFTER [KKSDTFFVKLSLFTER (SEQ ID NO: 295)] | 393
KKTDTFFVKLSLFTER [KKTDTFFVKLSLFTER (SEQ ID NO: 296)] | 451
KKVDTFFVKLSLFTER [KKVDTFFVKLSLFTER (SEQ ID NO: 297)] | 377
KKWDTFFVKLSLFTER [KKWDTFFVKLSLFTER (SEQ ID NO: 458)] | 341
KKYDTFFVKLSLFTER [KKYDTFFVKLSLFTER (SEQ ID NO: 452)] | 344
KLLDTFFVKLSLFTER [KLLDTFFVKLSLFTER (SEQ ID NO: 454)] | 343
KMLDTFFVKLSLFTER [KMLDTFFVKLSLFTER (SEQ ID NO: 417)] | 400
KNLDTFFVKLSLFTER [KNLDTFFVKLSLFTER (SEQ ID NO: 402)] | 432
KPLDTFFVKLSLFTER [KPLDTFFVKLSLFTER (SEQ ID NO: 405)] | 425

Binder | RAMPO Score [rampo units]
KQLDTFFVKLSLFTER [KQLDTFFVKLSLFTER (SEQ ID NO: 440)] | 350
KRLDTFFVKLSLFTER [KRLDTFFVKLSLFTER (SEQ ID NO: 407)] | 417
KSLDTFFVKLSLFTER (also called 30684) [KSLDTFFVKLSLFTER (SEQ ID NO: 510)] | 281
KTLDTFFVKLSLFTER [KTLDTFFVKLSLFTER (SEQ ID NO: 468)] | 331
KVLDTFFVKLSLFTER [KVLDTFFVKLSLFTER (SEQ ID NO: 481)] | 317
KWLDTFFVKLSLFTER [KWLDTFFVKLSLFTER (SEQ ID NO: 490)] | 304
KYLDTFFVKLSLFTER [KYLDTFFVKLSLFTER (SEQ ID NO: 494)] | 301
LKLDTFFVKLSLFTER [LKLDTFFVKLSLFTER (SEQ ID NO: 274)] | 449
MKLDTFFVKLSLFTER [MKLDTFFVKLSLFTER (SEQ ID NO: 275)] | 457
NKLDTFFVKLSLFTER [NKLDTFFVKLSLFTER (SEQ ID NO: 276)] | 445
KKLDTFFKKLSLFTER (also called SCF 27; SCF27) [P27 (KKLDTFFKKLSLFTER, SEQ ID NO: 264)] | 253
PKLDTFFVKLSLFTER [PKLDTFFVKLSLFTER (SEQ ID NO: 277)] | 387
QKLDTFFVKLSLFTER [QKLDTFFVKLSLFTER (SEQ ID NO: 278)] | 455
RKLDTFFVKLSLFTER [RKLDTFFVKLSLFTER (SEQ ID NO: 279)] | 523
SKLDTFFVKLSLFTER [SKLDTFFVKLSLFTER (SEQ ID NO: 453)] | 344
TKLDTFFVKLSLFTER [TKLDTFFVKLSLFTER (SEQ ID NO: 280)] | 493
VKLDTFFVKLSLFTER [VKLDTFFVKLSLFTER (SEQ ID NO: 281)] | 442
WKLDTFFVKLSLFTER [WKLDTFFVKLSLFTER (SEQ ID NO: 507)] | 284
YKLDTFFVKLSLFTER [YKLDTFFVKLSLFTER (SEQ ID NO: 483)] | 315
